Reference: the nanobody polyreactivity screen of Harvey et al. (2022)

Test: yeast display, Sf9 membrane polyspecificity reagent, FACS + sequencing; frameworks hold sequencing errors
How it was run: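 After 36–48 hours of galactose induction, yeast (Saccharomyces cerevisiae BJ5465) displaying a synthetic nanobody library were stained at 4 °C for 1 hour with 10% biotinylated, detergent-solubilized Sf9 membrane reagent. Streptavidin microbeads enriched the stained cells before FACS sorting into low and high (top ~1%) gates on anti-HA and streptavidin fluorescence. Each clone's polyreactivity label reflects its gate of origin.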
With “QVQLVESGGGLDQAGGSLRLSCAASGLTFQWNAMGWYRQAPGKERELVAGITDIGDSTYYADSVKGRFTISRDNAKHTDYLQLNSLKPEDTAVYYCNATSGYKHAWRSENGYWGQGTQVTVSS” the “polyreactivity (PSR sort gate)” value was “low polyreactivity”. In the case of “QVQLVESGGGLVQAGGSLRLSCAASGSIFISNAMGWYRQAPGKERELFAAINWTTGRTRYADSVKGRFTISRDNAKNTVYLQMNSLKPEDTAVYYCAARPYGGGRRSIYYYWGQGNQVTVSS”, the “polyreactivity (PSR sort gate)” value was “high polyreactivity”. In the case of “QVQLVESGGGLVQAGGSLRLSCAASGSILGLNAMGWYRQAPGKERELVAAITSRGGSTYYADSVKGRFTISRDNAKNTVYLQMNSLKPEDTAVYYCNREYVRVNYQYWYYAEYDYWGQGTQVTVSS”, the “polyreactivity (PSR sort gate)” value was “low polyreactivity”. With “QVQLVESGGGLVQAGGSLRLSCAASGSTFDGYAMGWYRQAPAKERELVAAISRSGGRTYYADSVNGRFTISRDNAKITVYLQMNSLKPEDTAFYYCAAMYTYKREDYWGQGTQVTVSS” the “polyreactivity (PSR sort gate)” value was “high polyreactivity”. In the case of “QVQLVESGGGLVQAGGSLRISCAASGFTFYNYAMGWYRQAPGKRELVAAITSGGRTNYADSVKGRFTISRDNAKNTVYLQMNSRIPEDTAVYYCNAYPRWKFRSQVYDGWYGRFDYWGQGTQVTVSS”, the “polyreactivity (PSR sort gate)” value was “high polyreactivity”. With “QVQLVESGAGLVQAGGSLRISCAASGRTFFPNAMGWYRQAPGKERELFAAISSGGGGTYYADSVKGRFTISRDNAKNTVYLQMNSLKPEDTAVYYCAARNSKVEEDGNYWGQGTQVTVSS” the “polyreactivity (PSR sort gate)” value was “low polyreactivity”. With “QVQLVESGGGLVQAGGSIRLSCAASGRIFGSYVRGWYRQGPGKESELVAAISRRGGSTYYADSVTWRFTISRDNAKNTVYLQMNSLTPEDTAVYYCAAEFSPSSNPYDYWGQGTQVTVSS” the “polyreactivity (PSR sort gate)” value was “high polyreactivity”. With “QVQLVESGGGLVQAGGSLRLICAASGSIFRPNAMGWYRQAPGKERELVAAITWSGDSTYYADSVKGRFTISRDNAKNTVYLQMNSLKPEDTAVYYCAADFTYQGSSANDYWGQGTQVTVSS” the “polyreactivity (PSR sort gate)” value was “low polyreactivity”. In the case of “QLQLVESGGGLVQAGGSLRLSCAASGLTFYSYPMGWYRQARGKERELVATIRSSGGSSYYADSVKGRFTISRDNAKNTVYLQMNSLKPEDTAVYYCAARWGPYAFTYVRTYDYWGHGTQVTVSS”, the “polyreactivity (PSR sort gate)” value was “low polyreactivity”. For “QVQLVESGGGLVQAGGSLRLSCAASGRIFGLNSLGWYRQAPGNEMELVAAIDIIGGSTYYADSVKGRFTISRDNAKNTVYLQMNSLKPEDTAVYYCAAEADFWRYVEYDYWGQGTQVTVSS”, the “polyreactivity (PSR sort gate)” value was “low polyreactivity”. With “QVQLVESGRGLVQAGGSLRLSCAASGSTFYRYAMGWYRQAPGKERELVAGITGSGGRTYYADSVKGRFTISRDNAKNTVYLQMNSLKPEDTAVYYCNAYPSSSLFDYWGQGTQVTVSS” the “polyreactivity (PSR sort gate)” value was “low polyreactivity”. In the case of “QVQLVESGGGLVQAGGSLRLSCAASGSIYWYAMGWYTQAPGKERELVAAITKSGSSTYYADSVKGRFTISRDNANNTVYLQMNSLIPEDTAVYYCAARRAVSGGVRMYYWGQGTQVTVSS”, the “polyreactivity (PSR sort gate)” value was “high polyreactivity”. With “QVQLVESGGGLVQAGGSLRLSCAASGRTFRYYAMGWYRQAPGKERELVASITSGGRTYYADSVKGRFTISRDNAKNTVYLQMNSLKPEDTAVYYCAADRFGIGGKRGNDYWGQGTQVTVSS” the “polyreactivity (PSR sort gate)” value was “high polyreactivity”. With “QVQLVESGGGLVQAGGSLRLSCAASGFTFKGNTMGWYRQAPGKERELVATITRGGTTYYADSVKGRFTISRDNAKNTVYLQMNSLKPEDTSVYYCAAVVYRPYRWQYDYWGQGTQVTVSS” the “polyreactivity (PSR sort gate)” value was “high polyreactivity”. For “QVQLVESGGGLVQAGGSLRLSCAASGFTFLVYAMGWYRQAPGKERELVAGITSGGRTYYADSVKGRFTISRDNAKNTVYLQMNSLKPEDTAVYYCAASRWAYEMNYWGQGSQVTVSS”, the “polyreactivity (PSR sort gate)” value was “high polyreactivity”. With “QVQLVESGGGLVQAGGSLRLSCAASGRTFYAYAMGLYRQAPGKERELVASIRWSSGSTNYADSVKRRFTISRDYAKITVYLQMNILKAEDTAVYYCAARYYYYGGHRLYWGQGTQLTVSS” the “polyreactivity (PSR sort gate)” value was “high polyreactivity”. In the case of “QVQLVESGGGLVQAGGSLRLSCADSGRHFSFNMGWYRQAPGKERELVAAISRRGGSTYYADSVKGRFTISRDNAKNTVYLQMNSLKPEYTAVYYCAVIPRQTYSGGGYDYWGQGTQVTVSS”, the “polyreactivity (PSR sort gate)” value was “high polyreactivity”. For “QVQLVESGGGLVQAGGSLRLSCAASGATFYLNDMGWYREAPGKERELVAAIDWSGGSTYYADSVKGRFTISRDNAKNTVYLQMNSLKPEDTAVYYCAARLVYEWRRLDYFIAWDYCGQGTQVTVSS”, the “polyreactivity (PSR sort gate)” value was “low polyreactivity”. With “QVQLVESGGGLVQAGGSLRLSCAASGSTFRYYAMGWYRQAPGKERELVAAISGSGGRTYYADSVKGRFTISRDNAKNTVYLQMNSLKPEDTAVYYCAAQCGYYDSAYGSWGQGTQVTVSS” the “polyreactivity (PSR sort gate)” value was “high polyreactivity”. With “QVQLVESGGGLVQAGGSLRLSCAASGGIFTYNAMGWYIQAPGKERELVAAITWNGGRTYYADSVKGRFTISRDTAKNTVYLQMNSLKPEDTAVYYCAARSPVKRQSRKQYYYWGQGTQVTVSS” the “polyreactivity (PSR sort gate)” value was “high polyreactivity”. With “QVQLVESGGGLVQAGGSLRLICAASGFIFYYYAMGWYRQAPGKERQVVAAITWSGGITYYADSVKGRFTISRDNAKNTVYLQMISMKPEDTAVYYCATGYEYYGYSGSRRDYWGQGTQVTVSS” the “polyreactivity (PSR sort gate)” value was “low polyreactivity”. For “QVQLVESCGGLVQAGGILRLSCAASGSTFRYYVMGWYRQAPGKERELVAAITSGGSKYYADSVKGRFTISRDNEQNTVYLQMNSLKPDDTAVYYCNKVYSRTFDYWGQGTQVTVSS”, the “polyreactivity (PSR sort gate)” value was “high polyreactivity”. In the case of “QVQLVESGGGLVQAGGSLRLSCAASGRIFGRNAMGWYRQAPGKERELVAAISWRGGNTYYADSVKGRFTISRDNAKNTVYLQMNSLKPEDTAVYYCNTVQYRNEMGYWGQGTQVTVSS”, the “polyreactivity (PSR sort gate)” value was “high polyreactivity”. In the case of “QVQLVESGGGLVQAGVSLRLSCAASGITFNHYTMGWYRQAPGKERELVAAISSRGSTTYYADSVKGRFTISRDNAKNTVYLQMNSLKPEDTAVYYCAAVYYLYSAWRYDYWGQGTQVTVSS”, the “polyreactivity (PSR sort gate)” value was “high polyreactivity”. With “QVQLEESGGGLVQAVGIIRLSCGASVSIFDAYAIGWYRKAPGKETELVASITYGGRTNYADSVEGRFTISRDNAKNTVYLQMNSLKPEDTAVYYCAAGGGYYYRYHRYPRGYWGQGTQVTVTS” the “polyreactivity (PSR sort gate)” value was “high polyreactivity”. For “QVQLVESGGGLVQAGGSLRLSCAASGSTFDIYAMGWYRQAPGKESELVAAISGSSTRTYYADSVKGRFTISRDNAKYTVYLQMNSLKPEDTPGYYCVGRFYERDYWGQGTQVTVSS”, the “polyreactivity (PSR sort gate)” value was “high polyreactivity”. With “QVQIVESGGGLVQAGGSLRLSCAASVRTFGRYVMGWYRQAPGKERELVAAISSGGRTYYADSVKGRFTISRDNAKNTVYLQMNSLKPEDNAVYYCAVYVAYLYSYYYWGQGTQVTVSS” the “polyreactivity (PSR sort gate)” value was “low polyreactivity”. With “QVQLVESGGGLVQAGGSLRLSCAASGSTFYRNAMGWYRQAPGKERELVAGISRRGGSTYYADSVKGRFTISRDNAKNTVYLQMNSLKPEDTAVYYCNADYPGIPHNDYWGQGTQVTVSS” the “polyreactivity (PSR sort gate)” value was “low polyreactivity”. For “QVQLVESGGGLVQAGGSLRLSCAASGSIFRDYAMGWYRPAPGKERELVAAISSGVSTNYADSVKGRFSISRDNAKNSVYLKMNSLIPEDTAVYYCNTDKYSESFRSYEYWGQGTQVTVSS”, the “polyreactivity (PSR sort gate)” value was “low polyreactivity”. For “QVHLVESGGGLVQAGGSLRLSCAASGGIFYPNAMGWYRQAPGKERELVAAISSGGGSTYYADSVKGRFTISRDNAKNTVYLQMNSLKPEDTAVYYCAASAYSLKSDVEYDYWGQGTLVTVSS”, the “polyreactivity (PSR sort gate)” value was “low polyreactivity”. In the case of “QVQLVESGGGLVQAGGSLRLSCAASGSTFWKYIMGWYRQAPGKERELVAAITTRGGSTYADSVKGRFTISRDNAKNTVYLQMNSLKPEDTAVYYWAATKFWYYGYDYWGQGTQVTVSS”, the “polyreactivity (PSR sort gate)” value was “low polyreactivity”. In the case of “QVQLVESGGGLVQAGGSLRLSCAASGRIFYNYDMGWYRQAPGKERELVAAITSGGNTYADSVKGRFTISRDNAKNTVYLQMNSLKPEDTAVYYCNARDKFYVPSQYAYDYWGQGTQVTVSS”, the “polyreactivity (PSR sort gate)” value was “low polyreactivity”. For “QVQLVESGGGLDQAGGSLRLICAASGRIFDVNAMGWYRQAPGKERELVAAISDSGGSTYYADSVKGRFTISRDNAKNTVYLQMNSLKPEDTAVYYCNANTPSLKRSTFNYWGQGTQVTVSS”, the “polyreactivity (PSR sort gate)” value was “low polyreactivity”. In the case of “QFQLLDSGGGLVQAGGSLRLSSAPSGFTIIGYDMGWYRQAPVKERELVAAIDWSGGSTYYADSVKGRFTISRDNAKYSVDLQMHSLKPEDTAVYYCNAEWSSKRFTGDDYWGQGTQVTVSS”, the “polyreactivity (PSR sort gate)” value was “low polyreactivity”. With “QVQLVESGGGLVQAGGSLRLSCAASGIIFIYNGMGWYRQAPGKERELVATINWSGGNTYYADSVKGRFTISRDNAKNTVSLQMNSLKPEDTAVYDCAVRGSRFWGYDYWGQGTQVTVSS” the “polyreactivity (PSR sort gate)” value was “low polyreactivity”. In the case of “QVQLVESGGGLVQAGGSLRLSCAASGSTFRFYAMGWYRQAPGKERELVAAITRSGGGTTYYADSVKGRFTISRDNAKNTVYLQMNSLKPEDTAVYYCAAYLSSLGRKYYYWGQGTQVTVSS”, the “polyreactivity (PSR sort gate)” value was “high polyreactivity”. In the case of “QVQLVESGGGLVQAGGSLRLSCAASGSTFISNAMGWYRQAPGKERELVAAITRRGGGTYYADSVKGRFTISRDNAMNTVYLQMNSLKPEDTAVYYCAARPWWRGYRFDYWGQGTQVTVSS”, the “polyreactivity (PSR sort gate)” value was “high polyreactivity”. With “QVQLVESGGGLFQAGGSLRLSCAASGSIFSWNDMGWYRQAPGKERELVAAINWNGGSTYYADSVKGRFTISRDNEKNSVYLQMNSLKPEYSEVYYCAAERSLYYVYSREYWGQGTQVTVSS” the “polyreactivity (PSR sort gate)” value was “low polyreactivity”. In the case of “QVQLVESGGGLVQAGGSLRLSCAASGRTFKFYAMGWDRQAPGSDRELVAAISSSGGRTYYADSVKGRFTISRDNAKNTVYLQMNSLKPEDTAVYYCAAVPGSKFVQKDDYWGQGTQVTVSS”, the “polyreactivity (PSR sort gate)” value was “low polyreactivity”. In the case of “QVQLVESGGGLVQAGGSLRLSCAASGSIFVVYTMGWYRQAPGKERELVAAITQNGGSSTYYADSVKGRFTISRDNAKNTVYLQMNSLKPEDTAVYYCNKDILSPVVRIFKYGYDMDYWGQGTQVTVSS”, the “polyreactivity (PSR sort gate)” value was “low polyreactivity”. For “QVQLVESGGGLVQAGGSLRLSCAASGRTFRIYAMGWYRQAPGKERELVATISGRGGNTYYADSVKGRFTISRDNAKNTVYLQMNSLKPEDTAVDYCAADDATAYRVDGFKYDYWGQGTLVTVSS”, the “polyreactivity (PSR sort gate)” value was “high polyreactivity”. With “QVQLVESGGGLVQAGASLRLSCAAAGITIGSNVMGWYRQAPRKERELVAAISQCGGRTYYADSVKGRFTISRDYAKNTVYLQMNSMKPEDTAVYYCAKRQRSFYGRPMCDYWGQGTQVTVSS” the “polyreactivity (PSR sort gate)” value was “high polyreactivity”. For “QVQLVESGGGLVQAGGSLRLSCAASGFIFTYNAMGWYRQAPGKETEFVASISRSGGRTYYADSVKGRFTISRDNAKNTVYLQMNSLKPEDTAVYYCAARNAYVYGMDYWGHGTQVTVSS”, the “polyreactivity (PSR sort gate)” value was “low polyreactivity”.
